{"source": "patent US20110306057A1", "molecular_target": "PP2A regulatory subunit B56γ (human (endogenous in human HEK TER cells)), Q13362", "sequence (Q13362 whole entry)": "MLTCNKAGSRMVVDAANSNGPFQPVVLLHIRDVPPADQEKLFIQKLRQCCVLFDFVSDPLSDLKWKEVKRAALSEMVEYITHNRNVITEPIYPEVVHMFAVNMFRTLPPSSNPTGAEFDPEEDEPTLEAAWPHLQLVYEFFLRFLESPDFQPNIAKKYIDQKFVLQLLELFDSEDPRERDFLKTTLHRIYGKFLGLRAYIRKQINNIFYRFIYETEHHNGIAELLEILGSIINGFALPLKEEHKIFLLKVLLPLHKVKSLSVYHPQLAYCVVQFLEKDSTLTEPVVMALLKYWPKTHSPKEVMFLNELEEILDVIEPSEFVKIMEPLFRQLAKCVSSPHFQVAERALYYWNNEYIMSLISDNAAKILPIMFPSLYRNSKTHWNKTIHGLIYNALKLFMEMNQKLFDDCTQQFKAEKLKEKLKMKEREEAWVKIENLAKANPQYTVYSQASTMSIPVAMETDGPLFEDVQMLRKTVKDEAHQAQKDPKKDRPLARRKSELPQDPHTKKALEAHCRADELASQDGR", "assay": "anti-FLAG co-IP from HEK TER cells, immunoblot, densitometry; +++ >90%, ++ 50-90%, + <50%", "settings": "remark: other sources report otherwise"}
{"binder": "wild type (WT) FLAG epitope-tagged version of PP2A Aβ, P30154 1-601 (protein, not shown: small tags and cut ends) MAGASELGTGPGAAGGDGDDSLYPIAVLIDELRNEDVQLRLNSIKKLSTIALALGVERTRSELLPFLTDTIYDEDEVLLALAEQLGNFTGLVGGPDFAHCLLPPLENLATVEETVVRDKAVESLRQISQEHTPVALEAYFVPLVKRLASGDWFTSRTSACGLFSVCYPRASNAVKAEIRQQFRSLCSDDTPMVRRAAASKLGEFAKVLELDSVKSEIVPLFTSLASDEQDSVRLLAVEACVSIAQLLSQDDLETLVMPTLRQAAEDKSWRVRYMVADRFSELQKAMGPKITLNDLIPAFQNLLKDCEAEVRAAAAHKVKELGENLPIEDRETIIMNQILPYIKELVSDTNQHVKSALASVIMGLSTILGKENTIEHLLPLFLAQLKDECPDVRLNIISNLDCVNEVIGIRQLSQSLLPAIVELAEDAKWRVRLAIIEYMPLLAGQLGVEFFDEKLNSLCMAWLVDHVYAIREAATNNLMKLVQKFGTEWAQNTIVPKVLVMANDPNYLHRMTTLFCINALSEACGQEITTKQMLPIVLKMAGDQVANVRFNVAKSLQKIGPILDTNALQGEVKPVLQKLGQDEDMDVKYFAQEAISVLALA", "values": [{"measurement": "binding level (percent, co-immunoprecipitation densitometry)", "value": "> 90", "unit": "%"}]}
